We go through five molecules from article PMC4601081, “A Single α Helix Drives Extensive Remodeling of the Proteasome Lid and Completion of Regulatory Particle Assembly” (Cell, 2015).

Ends that are not written are not given here.

The chains are these.
T1: Rpn3, subunit of LP2 and lid purified from yeast (S. cerevisiae, UniProt P40016 1-523)
T1 construct: Rpn3, S. cerevisiae proteasome lid subunit; source: purified from S. cerevisiae as part of LP2 or lid
T1 sequence (looked up): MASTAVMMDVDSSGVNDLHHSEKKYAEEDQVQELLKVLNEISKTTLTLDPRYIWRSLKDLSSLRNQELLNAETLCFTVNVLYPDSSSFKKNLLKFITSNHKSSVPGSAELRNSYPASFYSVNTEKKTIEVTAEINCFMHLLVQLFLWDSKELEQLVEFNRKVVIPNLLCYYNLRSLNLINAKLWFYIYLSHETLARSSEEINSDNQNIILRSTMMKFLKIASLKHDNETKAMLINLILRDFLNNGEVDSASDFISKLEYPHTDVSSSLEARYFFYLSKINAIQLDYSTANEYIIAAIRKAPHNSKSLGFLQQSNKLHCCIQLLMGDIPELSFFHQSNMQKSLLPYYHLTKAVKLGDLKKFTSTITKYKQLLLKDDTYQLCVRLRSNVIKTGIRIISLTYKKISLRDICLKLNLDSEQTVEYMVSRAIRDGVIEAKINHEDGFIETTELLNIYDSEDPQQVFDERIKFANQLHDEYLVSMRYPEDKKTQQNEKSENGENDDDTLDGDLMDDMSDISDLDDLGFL

T2: Rpn5, subunit of LP2 and lid purified from yeast (S. cerevisiae, UniProt Q12250 1-445)
T2 construct: Rpn5, S. cerevisiae proteasome lid subunit; source: purified from S. cerevisiae as part of LP2 or lid
T2 sequence (looked up): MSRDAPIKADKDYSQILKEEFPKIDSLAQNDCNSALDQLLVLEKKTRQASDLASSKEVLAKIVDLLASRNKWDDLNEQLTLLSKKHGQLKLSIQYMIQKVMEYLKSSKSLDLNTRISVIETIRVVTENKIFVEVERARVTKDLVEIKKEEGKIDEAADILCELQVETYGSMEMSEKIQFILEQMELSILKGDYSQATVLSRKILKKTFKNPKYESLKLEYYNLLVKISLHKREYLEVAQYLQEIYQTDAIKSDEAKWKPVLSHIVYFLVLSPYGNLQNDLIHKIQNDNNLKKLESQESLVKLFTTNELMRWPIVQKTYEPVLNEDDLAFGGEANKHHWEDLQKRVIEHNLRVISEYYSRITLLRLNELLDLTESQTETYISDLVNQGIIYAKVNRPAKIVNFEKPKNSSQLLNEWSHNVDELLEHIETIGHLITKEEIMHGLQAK

T3: Rpn9, subunit of LP2 and lid purified from yeast (S. cerevisiae, UniProt Q04062 1-393)
T3 construct: Rpn9, S. cerevisiae proteasome lid subunit; source: purified from S. cerevisiae as part of LP2 or lid
T3 sequence (looked up): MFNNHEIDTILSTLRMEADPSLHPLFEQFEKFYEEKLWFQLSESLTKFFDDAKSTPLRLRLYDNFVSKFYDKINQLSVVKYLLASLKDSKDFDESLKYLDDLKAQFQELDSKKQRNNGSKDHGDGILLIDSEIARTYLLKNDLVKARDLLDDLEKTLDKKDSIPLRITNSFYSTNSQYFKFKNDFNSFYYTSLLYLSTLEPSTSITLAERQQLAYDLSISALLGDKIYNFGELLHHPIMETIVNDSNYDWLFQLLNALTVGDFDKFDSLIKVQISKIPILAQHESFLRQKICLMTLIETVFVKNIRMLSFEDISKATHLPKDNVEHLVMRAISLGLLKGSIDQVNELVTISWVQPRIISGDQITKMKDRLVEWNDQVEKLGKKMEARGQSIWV

T4: Rpn6, subunit of LP2 and lid purified from yeast (S. cerevisiae, UniProt Q12377 1-434)
T4 construct: Rpn6, S. cerevisiae proteasome lid subunit; Also stands as the whole protein for the region row on the E. coli truncations; source: purified from S. cerevisiae as part of LP2 or lid
T4 sequence (looked up): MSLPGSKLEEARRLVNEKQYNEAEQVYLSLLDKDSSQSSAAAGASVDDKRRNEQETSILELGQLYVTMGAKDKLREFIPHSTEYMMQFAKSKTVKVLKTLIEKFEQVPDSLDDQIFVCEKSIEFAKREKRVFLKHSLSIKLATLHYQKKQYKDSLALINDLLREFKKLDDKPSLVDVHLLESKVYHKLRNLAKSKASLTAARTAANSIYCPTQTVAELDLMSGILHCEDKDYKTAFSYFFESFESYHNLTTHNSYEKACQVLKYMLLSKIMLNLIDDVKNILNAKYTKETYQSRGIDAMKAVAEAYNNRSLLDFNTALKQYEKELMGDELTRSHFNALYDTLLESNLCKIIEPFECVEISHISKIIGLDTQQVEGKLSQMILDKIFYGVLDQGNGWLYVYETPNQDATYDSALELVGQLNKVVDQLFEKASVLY

B1: N12pep, fluorescently labeled peptide of the Rpn12 C-terminal helix (peptide)
peptide: DQKTNIIEKAMDYAISIENIK(5,6‑carboxyfluorescein)
notes: Rpn12, S. cerevisiae, C-terminal helix; added lysine that carries 5,6-carboxyfluorescein; also called Rpn12 C-terminal helix peptide; source: synthetic peptide (Elim Biopharmaceuticals)
B2: Rpn7, subunit of LP2 and lid purified from yeast (natural protein, S. cerevisiae, UniProt Q06103 1-429, looked up)
chain: MVDVEEKSQEVEYVDPTVNRVPNYEVSEKAFLLTQSKVSIEQRKEAAEFVLAKIKEEEMAPYYKYLCEEYLVNNGQSDLEHDEKSDSLNEWIKFDQELYNELCKKNESKIKELNEKIQKLEEDDEGELEQAQAWINLGEYYAQIGDKDNAEKTLGKSLSKAISTGAKIDVMLTIARLGFFYNDQLYVKEKLEAVNSMIEKGGDWERRNRYKTYYGIHCLAVRNFKEAAKLLVDSLATFTSIELTSYESIATYASVTGLFTLERTDLKSKVIDSPELLSLISTTAALQSISSLTISLYASDYASYFPYLLETYANVLIPCKYLNRHADFFVREMRRKVYAQLLESYKTLSLKSMASAFGVSVAFLDNDLGKFIPNKQLNCVIDRVNGIVETNRPDNKNAQYHLLVKQGDGLLTKLQKYGAAVRLTGSDRV
notes: Rpn7, S. cerevisiae proteasome lid subunit; source: purified from S. cerevisiae as part of LP2 or lid
B3: Rpn11, subunit of LP2 and lid purified from yeast (natural protein, S. cerevisiae, UniProt P43588 1-306, looked up)
chain: MERLQRLMMNSKVGSADTGRDDTKETVYISSIALLKMLKHGRAGVPMEVMGLMLGEFVDDYTVNVVDVFAMPQSGTGVSVEAVDDVFQAKMMDMLKQTGRDQMVVGWYHSHPGFGCWLSSVDVNTQKSFEQLNSRAVAVVVDPIQSVKGKVVIDAFRLIDTGALINNLEPRQTTSNTGLLNKANIQALIHGLNRHYYSLNIDYHKTAKETKMLMNLHKEQWQSGLKMYDYEEKEESNLAATKSMVKIAEQYSKRIEEEKELTEEELKTRYVGRQDPKKHLSETADETLENNIVSVLTAGVNSVAIK
notes: Rpn11, S. cerevisiae proteasome lid subunit; source: purified from S. cerevisiae as part of LP2 or lid
B4: Rpn8, subunit of LP2 and lid purified from yeast (natural protein, S. cerevisiae, UniProt Q08723 1-338, looked up)
chain: MSLQHEKVTIAPLVLLSALDHYERTQTKENKRCVGVILGDANSSTIRVTNSFALPFEEDEKNSDVWFLDHNYIENMNEMCKKINAKEKLIGWYHSGPKLRASDLKINELFKKYTQNNPLLLIVDVKQQGVGLPTDAYVAIEQVKDDGTSTEKTFLHLPCTIEAEEAEEIGVEHLLRDVRDQAAGGLSIRLTNQLKSLKGLQSKLKDVVEYLDKVINKELPINHTILGKLQDVFNLLPNLGTPDDDEIDVENHDRINISNNLQKALTVKTNDELMVIYISNLVRSIIAFDDLIENKIQNKKIQEQRVKDKQSKVSDDSESESGDKEATAPLIQRKNKKN
notes: Rpn8, S. cerevisiae proteasome lid subunit; source: purified from S. cerevisiae as part of LP2 or lid
B5: Rpn12, recombinant, full-length (natural protein, S. cerevisiae, UniProt P32496 1-274, looked up)
chain: MPSLAELTKSLSIAFENGDYAACEKLLPPIKIELIKNNLLIPDLSIQNDIYLNDLMITKRILEVGALASIQTFNFDSFENYFNQLKPYYFSNNHKLSESDKKSKLISLYLLNLLSQNNTTKFHSELQYLDKHIKNLEDDSLLSYPIKLDRWLMEGSYQKAWDLLQSGSQNISEFDSFTDILKSAIRDEIAKNTELSYDFLPLSNIKALLFFNNEKETEKFALERNWPIVNSKVYFNNQSKEKADYEDEMMHEEDQKTNIIEKAMDYAISIENIV
notes: Rpn12, S. cerevisiae proteasome lid subunit; also called recombinant Rpn12; purified Rpn12

Common to all, as to conditions: both partners purified
The target of assay [1] is T5, lid particle 2 (LP2), recombinant (S. cerevisiae, UniProt P40016 1-523; Q12250 1-445; Q12377 1-434; Q06103 1-429; Q08723 1-338; Q04062 …).
T5 construct: Rpn3, S. cerevisiae proteasome lid subunit; Rpn5, S. cerevisiae proteasome lid subunit; Rpn6, S. cerevisiae proteasome lid subunit; Rpn7, S. cerevisiae proteasome lid subunit; Rpn8, S. cerevisiae proteasome lid subunit; Rpn9, S. cerevisiae proteasome lid subunit; Rpn11, S. cerevisiae proteasome lid subunit; Sem1, S. cerevisiae proteasome lid subunit; legends speak of 'untagged LP2'; operons as in …
Kind of assay: fluorescence polarisation; fluorescence anisotropy: 1 uM fluorescein-labelled N12pep in Lid Buffer alone, with 1 uM LP2, 5 uM Rpn12, or both; 25°C 20 min; excitation 485 nm, emission 513-528 nm.

The target in assay [2] is T1, Rpn3, subunit of LP2 and lid purified …. Kind of assay: cross-linking; QCLMS of LP2 purified from yeast as a whole complex: BS3-d0 / BS3-d4 at 1:200 protein to cross-linker, Buffer HA, 30°C 1 h; monomeric cross-linked complex cut from SDS-PAGE, trypsin, LC-MS/MS.
For assay [3], the target named is B4. The description is as above.
The target in assay [4] is T2, Rpn5, subunit of LP2 and lid purified …. Described as above.
Assay [5] shares this target. Kind of assay: cross-linking; QCLMS of lid purified from yeast as a whole complex: BS3-d0 / BS3-d4 at 1:200 protein to cross-linker, Buffer HA, 30°C 1 h; monomeric cross-linked complex cut from SDS-PAGE, trypsin, LC-MS/MS.
Assay [6] addresses T3, Rpn9, subunit of LP2 and lid purified …. In words: cross-linking; QCLMS of LP2 purified from yeast as a whole complex: BS3-d0 / BS3-d4 at 1:200 protein to cross-linker, Buffer HA, 30°C 1 h; monomeric cross-linked complex cut from SDS-PAGE, trypsin, LC-MS/MS.
Assay [7] addresses T4, Rpn6, subunit of LP2 and lid purified …. Described as above.
Assay [8] deals with T5, lid particle 2 (LP2), recombinant. In words: negative-stain EM; purified recombinant LP2 treated with an equimolar concentration of recombinant Rpn12; 2D class averages.

T5 sequence (O94742 whole entry, chain 8 of 3, one chain of several, further chain): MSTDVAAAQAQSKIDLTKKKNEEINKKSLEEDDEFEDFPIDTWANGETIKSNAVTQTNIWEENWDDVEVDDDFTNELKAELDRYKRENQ

As to B1, the binding result in assay [1] is recorded as “binds”.
On to B2, for which the binding result in assay [2] is “binds”.
With B3, the binding result in assay [3] and in assay [4] was “binds” each time.
Consider B4, for which the binding result in assay [5], in assay [6] and in assay [7] was “binds” in each case.
On to B5, for which the binding result in assay [8] was “binds”.
